Measured values: the nanobody polyreactivity screen of Harvey et al. (2022)

Experiment: yeast display, Sf9 membrane polyspecificity reagent, FACS + sequencing; frameworks hold sequencing errors
Summary of the method: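 Nanobodies from a synthetic yeast display library (Saccharomyces cerevisiae BJ5465), induced 36–48 hours with galactose, were stained 1 hour at 4 °C with 10% biotinylated, detergent-solubilized Sf9 membrane reagent, enriched on streptavidin microbeads, then FACS-sorted. Anti-HA (expression) and streptavidin (reagent binding) fluorescence set low and high (top ~1%) gates. Polyreactivity labels come from the gate of origin. Genes were colony-PCR amplified, MiSeq 2 × 250 sequenced and filtered by CDR length.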

Row | Sequence | polyreactivity (PSR sort gate)
1 | QVQLVESGGGLVQAGGSLRLSCAASGRTFGYNAMGWYREAPGKERELVPAITTSGGSTYYADSVKGRFTISRDNAKNSVYLQMNSRKPEDTAVYYCAADYSFFYRYTWLVYIFDYDYWGQGTQVTVSS | low polyreactivity
2 | QVQLVESGGGLVQAGGSLRLSCAASGIFVSYAMGWYRQAPGKERELVAAISWNGGSTYYADSVKGRFTISRDNAKNTVYLQMNSLKPEDTAVYDCAARAYFSYRGYVTDYDYWGQGTQVTVSS | high polyreactivity
3 | QVQLVESGGCLVQAGGSLRLSSAASGFIIPGNPMCWYRQAPAKERDLVAAITSGGSTKYADSVKGRITISRDNAKNTDYLQMNSLKPEDTAVYYCAARGFPPGDEWHPYDYWGQGTQVTVSS | low polyreactivity
4 | QVQLVESGGGLVQAGGSLRLSCAASGSIFEYYAMGWYRQAPGKEREFVAAISDNGDSTYYADSVKGRFTISRDNAKNTVYLQMNSLKPEDTAVYYCAVRKAYQYGFYYWGQGTQLTVSS | low polyreactivity
5 | QVQLVESGGGLVQAGGSLRVSCAASGRTFYANVRGWYRQAPGKERELGAAIAASGGSTYYADSVKGRVTISRDNAKNTVYLQMNRLKPEDTAGYYCYKVVRWPGTYLRYVISDLDYWGQGSQVTVSS | low polyreactivity
6 | QVQLVESGGGLVQAGGSLRLSCAASGIIFRSYAMGWYRQAPGKERELVAAITGGGTTNYADSVKGRFTISRDNAKNTVYLQMNSLKPEDTEVYYCNAGLDWFWFNEMDYWGQGTQVTVSS | low polyreactivity
7 | QVQLVESGGGLVQAGGSLRLSCAASGRTLVKYAMGWYRQAPGKERELVAAITQRGGITYYADSVKGRFTISRDNAKNTVYLQMNSLKPEDTAVYYFAASLYSYRSPYTFYYWGQGTQVTVSS | high polyreactivity
8 | QVQLVESGGGLVQAGGSLRLSCAASGFTFNYYPMGWYRQAPGKERELVAAIDSGGNTYYADSVKGRFTISRDNAKNTVYLQMNSLKPEDTAVYYCAAYRDYQYDFWGQGTQVTVSS | low polyreactivity
9 | QVQLVESGGGLVQAGGSLRLSCAASGSIFPGYAMGWYRQAPGKERELVAAISSGGSTNYADSVKGRFTISRDNAKNTVYLQMNSLKPEDTAVYYCAARVWRYHVYAFYYWGQGTQVTVSS | high polyreactivity
10 | QVQLVESGGGLVQAGGSLRLSCAASGSTFTNNGMGWYRQAPGKERELVATISWDGDSTYYADSVKGRFTISRDNAKNTVYLQMNSLKPEDTAVYYCAADEWGSDSALNFEYWGQGTQVTVSS | low polyreactivity
11 | QVQLVESGGGLVQAGGSLRLSCAASGFTFGVYAMGWYRQAPGKERELVAAITRSGSSTYYADSVKGRFTISRDNAKNTVYLQMNSLKPEDTAVYYCNKYKYVSAVQWKVAGDYWGQGTQVTVSS | low polyreactivity
12 | QVQLVESGGGLDQAGGSLRLSCAASGRIFVIYAMGWYRQAPGKERELVAVINDDGSTNYADSVKGRFTISRDNAKNTVYLQMNSLKPEDTAVYYCAAESARYLTFEFDYWGQSTQVTVSS | low polyreactivity
13 | QVQLVESAGGLVQAGGSLRLSCAASGITFTYYAMGWYRQAPGKERELVATISYGGGITYYADSVKGRFTISRDNAKNTVYLQMNSLKPEDTAVYYCNADGATVWSLEYWGQGTQVTVSS | low polyreactivity
14 | QVQLVESGGGLVQAGGSLRLSGAASGSTFQYYAMGWYRQAPGKERELVAAISDGTNTNYADSVKGRFTISRDNAKNTVYLQMNSLKPEDTAVYYCAARFSSIVKYVGIGTDEYDYWGQGTQVTVSS | low polyreactivity
15 | QVQLVESGGGLVQAGGSLRLSCAASGYIFGWYAMGWYRQAPGKERELVATIDWSGDSTYYADSVKGRFTISRDNAKNTVYLQMNSLKPEDTAVYYCSAGVGYITYYGYDYWGQGTQVTVSS | low polyreactivity
16 | QVQLVESGGGLVQAGGSLRLSCAASGSIFTLYAMGWYRQAPGKEREFVAGISFSTGRTYYADSVKGRFTISRDNAKNTVYLQMNSLKPEDTAVYYCAAYVSHYWYGVYRDGYWGQGTQVTVSS | low polyreactivity
17 | QVQLVESGGGLVQAGGSLRLSCAASGFTFGSNTMGWYRQAPRKERELVAAITGRGGSTYYADSVKGRFTSSRDNAKNTVYLQMTSLKPEDTAVYYCAARTYPTGASFDYWGQGTQVTVSS | high polyreactivity
18 | QGQLVESGGGLVQAGGSIRLSCAASGYIFRRYAMGWYRQAPGKEREFVATISRSGGSTYYADSVKGRFTISRDNAKNTVYLQMNSLKPEDTAVYYCNAGYGYGYPKYDYWGQCTQVTVSS | high polyreactivity
19 | QVQLVESGGGLVQAGGSLRLSCAASGLTFAINTMGWYRQAPGKERELVAAITGSGGSTYYADSVKGRFTISRDNAKNTVYLQMNSLKPEDTAVYYCAAELLYVQGYAMDYWGQGTQVTVSS | low polyreactivity
20 | QVQLVESGGGLVQAGGSLRLSCAASGSTVHYMGWYRQAHGKESELVAGISWSGGSTYYADSVKGRFTISRDNAKKTVYLQINSLKPEDTAVYYCAADIKIRLYTTGDYWGQGTQVTVSS | low polyreactivity
21 | QVLLVESGGGLVQAGGSLRLSWAASGSIFTIYAMGWYRKAPGQERELVAAMNRGDGTNYADSVKGRFTISRDKAKNTVYLQMKSLKPEDTPVYYCAAEYYTEYQKWFDYWGQGTQVTLSS | high polyreactivity
22 | QVQLVESGGGLVQAGGSLRLSCAASGFTFYINVMGWYRQATGKERELVAAITSSGTTNYADSVKGRFTISRDNAKNTVYLQMNSLKPEDTAVYYCAKRSYGGTLHYAFDSWGQGTQVTVSS | low polyreactivity

Row | Sequence | polyreactivity (PSR sort gate)
23 | QVQLVESGGGLVQAGGSLRLSCAASGFTFYFYAKGWYTQSPGKERELVASISSSGGSTYADSVKGPFTISRDNAKNTVYLQMNSLKPEDTAVYYCAATEIFRFRYVAVGYDYWGQGTQVTVSS | low polyreactivity
24 | QVQLVESGGGLVQAGGSLRLSCAASGSTFSNYAMGWYRQAPGKERELVAAISVRGGSTYYADSVKGRFTISRDNAKNTVYLQMNSLKPEDTAVYYCAKYYYYLRSARKYDYWGQGTQVTVSS | high polyreactivity
25 | QVQLVESGGGLVQAGGSLRLSCAASGSIFYENVMGWYRQAPGKERELVAGISRSGGRTYYADSVKGRFTISRDNAKNTVYLQMNSLKPEDTAVYYCNAARVYLSEWGQGTQVTVSS | high polyreactivity
26 | QVQLVESGGGLVQAGGSLRLSCAASGSIFEVYAMGWYRQAPGKERELVAAIDYSDGTTYYADSVKGRFTISRDNAKNTVYLQMNSLKPEDTAGYYCAADFPGQHYDYWGQGTQVTVSS | low polyreactivity
27 | QVQLVESGGGLVQAGGSLRLSCAASGFTFKYYSMGRYRQAPGKERELVAAISRGGRTNYADSVKGRFTISRDNAKNTVYLQMNSLKPEDTAVYYCAADGIYALFFTSGGIWFDYWGEGTQVTVSS | low polyreactivity
28 | QVQLVESGGGLVQAVGSLRLSCAASGSTFKAYAMGWYRQAPGKERELVAAITKSGGRTYYADSVKGRFTISRDNAKNTVYLQMNSLKPEDTAVYYCAAVFRPDSSAYRYYYLGQGTQVTVSS | high polyreactivity
29 | QLQLEESGGGLVQAGGSLRLSCAAYGSIYYYNGMGWYRQAPAKERELVAAISSSGGRTYYADSVKGRFTISRDNENNTVYLQMNSLKPEDPAVYYCYDSGFGKTGFGYDYWGQGTQVTVSS | low polyreactivity
30 | QVQLVESGGGLFQAGGSLRLSCAASGRTFWRYAMGWSRQAPGKERELVAAITSGGGSTFYADSVKGRFTISRDYAKNTVDLQMNILKAEVTAVYYCNREYRWGNSLYSRYDYWGQGTQVTVSS | high polyreactivity
31 | QVQLVESGGGLVQAGGSLRLSCAASGITSKQYAMVWYRQAPGKERELVAAISGSGTRTYYADSVKGRFTISRDNAKNTVNLQMNSLKPEDTAVYYCAAYGYSRCHDDWGQVTQVTVSS | high polyreactivity
32 | QVQLVESGGGLVQAGGSLRLSCAASGFIFYHYAMGWYRQAPGKERELVAAISWNGGRTYYADSVKGRFTISRDNAKNTVYLQMNSLKPEDTAVYYCAAPVLTSDYTLDSYYWGQGTQVTVSS | high polyreactivity
33 | QVQLVESGVGLVQAGGRLRLICAASGITFGPNALGWYRQAPGKERELVAAISWRGGSTYNADSVKGRFTISRDNGKNTVYLQMNSLKPEDTAVYYCAADLAYGAMVYWGQGTQVTVSS | low polyreactivity
34 | QVQLVESGGGLVQAGGSLRLSCAASGLTFAQYAMGWYRQAPGKERELVAAITSRGTNTYYADSVKGRFTISRDNAKNTVYLQMNSLKPEDTAVYYCNTYRARLGTTFIDYDYWGQGTQVTVSS | high polyreactivity
35 | QVQLVESGGGLVQAGGSLRLSCAASGSTFRQYAMGWYRQAPGKERELVAAIRGRDGSTYYADSVKGGFTISRDNAKYTVYLQMNSLKPEDSAVYYCNVVARGVSPGYDYWGQGTQVTVSS | high polyreactivity
36 | QDQLEETGGGLVHAGGSLRLSCAASGRTFVVYDMGWYRQAPGKERELVAGIRWRGGSTYYADSVKGRFTISRDNAKNSVYLQMNSLKPVDTAVYYCAADVYLVKYDYWGQGTQVTVSS | low polyreactivity
37 | QVQLVESGGGLVQAGGSLRLSCAASGSTLVRYALGLSRQAPGKERELVAAISRSGSSTYYADSVKGRFTISRDIAKNTVYLQMNSLKPEDTAVYYCATDRYPTTPYYNYRFGYWGQGTQVTVSS | high polyreactivity
38 | QVQLVESGGGLVQAGGSLRLSCAASGRTYGEYGMGWYRQAPGKERELVAAISSTGSTYYADSVKGRFTISRDNAKNTVYLQMNSLKPEDTAVYYCAAEIVRYGDEYDYWGQGTQVTVSS | low polyreactivity
39 | QVQLVESGGGLVQAGGSLRLSCAASGSTLSGNAMGWYRQAPGKERELVAAISWNGGATYYADSVKGRFTISRDNAKNTVYLQMNSQKPEDTAVYYCAAEYIVTYEYWYFGYDYWGQGTQVTVSS | low polyreactivity
40 | QVQLVESGGGLVQAGGSLRLSCAASGITFLTYAMGWYRQSPGKDRELVASITYSGGTTYYADSVKGRFTISRDNAKNTVYLQMNSLQPEDTAVYYCNTDWRTSVGYDYWGQGTQVTVSS | low polyreactivity
41 | QVQLVESGGGLVQAGGSLRLSCAASGRTFWFYDMGWYRQAPGKEREFVASITSSGGSTYYADSVKGRFTISRDIAKNTVYLQMNSLNPEDTAVYYCAASFYWTTRYSREYDYWGQGTQVTVSS | high polyreactivity
42 | QVQLVESGGGLVQAGGTLRLSCAASGFIIPGYAMGCYRQAPGKERELVAAISGRGGSTYYADSVKGRFTISRDNAKNTVYLQMNSLKPEDTAVYYCNADWQDDLAGYDVDYWGQGTQVTVSS | low polyreactivity
43 | QVQLVESVGGLVQAGGSLRLSCAASVFIFRSYAMGWYRQAPGKERELVASISRRGASTYYADSVKGRFTISRDNAKNTVYLQMNSLKPEDTAVYYCNADGLRGFYTGAYDYDYWGQGTQVTVSS | high polyreactivity
